Test: soluble on expression in E. coli; label from the status in PepcDB or PDB records

Sequence	soluble on expression in E. coli
MGSDKIHHHHHHQPAAGISDDMVKIGMLLDMSGLYADVTGRGSATAAQMAIDDFGGKVLGKKIELVVVDHQNKADIAANKAREWFDTGHVDAILDVAASAPALAVLDVAKQKNHIVVFSGPGSERITNDLCTPVSVHYAYDTYALANTTARAMVQRGGKTWFFLTADYAFGHTLQDSATAVINEAGGKVLGAARHPIGASDFASYLLQAQASKAQVVGLANAGGDTVNAIKAASEFGLTRNGAQRMAGLLLYINDIHAIGLKTASGLVLTEAFYWDMNDATRAWSRRYFEKVKKMPNMSQAGAYSSVMHYLKAVQAAGTDETAAVMKKMKSMPINDFFAKNGRIREDGRMIHDMYLFEVKSPAESKYPWDYYKVLATVPGDQAFMPASKSQCPLLKR	not soluble
MGSDKIHHHHHHQPGATGGTWTCCPVSWRAFQSNCYFPLNDNQTWHESERNCSGMSSHLVTINTEAEQNFVTQLLDKRFSYFLGLADENVEGQWQWVDKTPFNPHTVFWEKGESNDFMEEDCVVLVHVHEKWVWNDFPCHFEVRRICKLPGITFNWKPSK	not soluble
MGSDKIHHHHHHSCDGMDATYKEFIEEGPIVYIGKVDSLKAYAGRNRAMLEWQKLLDPRAKTAKIFWENRTRSTELQLTDKAGLTQVIVKDLAEGSYVFEVCTYDTHGNSSIMSEVPCTVYGDVYEKLLFNTKVKTAVLKNDVLTITFAASLEPTFFGSEITYTSIDGGDKTVILKAPETQIKIDDFAGDRIIYRSVYLPEETAIDYFYSESDEFEIK	not soluble
MGSDKIHHHHHHSCDNDDDESIAVPTPLQEAFSTRYPNVKNVKWETKAGYYVADFYDGYEASAWFTTDGNWHMTETDIPYTALPDPVKSAFEASDYKTWKRDDVDKLERQGIETVYVIEVENQNQEVDLYYSADGVLIKSIADTDDHENEHLPTTQLPAVMKTFIDGKYAGARIVEVDVEDDKNDWDFGFTEVDIIHFDSGLNRNVSKEVLFDKGREWYSTSWEVRRNELPTAVTNAISTEYAGYQMDDAEYFEMATETSYYQIELEGNNSPDIDIKVTADGTILK	not soluble
MGSDKIHHHHHHSCVNDLDTVPLDKDELVSDVVFGNEPLAYEQSLAKIYAGMAIGGNSGGDSDQDVVGIDGGSQASFLRVLWNMQDLPSDIAHCAWNDPGIPEFNHISWGASSPWIKGSYYRLFYQINVANAYLRETAEDKLDARGCDASLKASIKTWRAEARFLRALSYEYALDLYRNVPFVDENSPIGSIPPKQIMAADLFNWIEKELTECVEDMLEPTVGYSQDYGHANKAAAWALLSRLYLNAETYVGQNKYTECITYAKKVIETGYQLEPVYVDMFKADNHLSNEMIFPVRYEGDQTMTWGGMTAFLCWGATATQEEVNAKGAWQGVRAKSSLYNLFLKESGSDADTRKAMLRTDLTTSLEIIDENTFQNNGIPVTKYFNVNKDGTLPPSKEAYVDFPLFRLGEIYLTYAEAVLRGGQGGDRATALRYVNDLRKRAYSDKTLAPISDSDLTLNFIIDERGREFFFEGQRRTDLVRFGLFTTAGYVWPWKGGTAKGKAVENFYNVFPIPSDDIGSNTNLKQNEGY	not soluble
MGSDKIHHHHHHSDQYSTETFWKTKEHASAGIMGCYNALKLWRSLHTMEFDMLTANAMPYNEANGTQAIGKGEHLSTTALIGSLWKNCYVGIGRTNTFIANVGGVDMDESEKAKMVGEAKFLRAFYYLSLVDKFGGVPLIIDAPNADEQAELPRNSKEEVVNQIVKDLEEAAAVLPDTYASSDLGRATKGAALALKARTLLYNSRWAEAAQAAKQVMESGVYQLFNDYRHFFSEDNKYNCEVIFDIEAKLPEYPTDYDQNIWRLNRPAPLKELVDTYLCVDGKTIEESPLYDPTRPYENRDPRLLKSIVCIGYPYLGKTITKEDVATTGFGVKKYTSYEDDVTIPLVERSAFNFILIRYAEVLLTYAEAQNEASGPDQSVYDAINQLRRRPDINMPEVPKGLTKDQMREVIRRERRIELTFEGLYYSDILRWKTAEKENNGMMHNYEGIEVVKRSFNPKRDYLWPIPYNQTVLNPNLEQNPNWD	not soluble
MGSDKIHHHHHHSDVVDLEPVDKFSELTAYGTEERCELAVVGAYDAAQCGMYVDPNDFGWARGYPFGAASILQGEMRGEDMNLTAQFYDYTYSATYNLTTANNVAMWETSFEAINRYNTVYAGIEGAVAAGVITEEKGNQYKGECLFLRALTYHNLMIHYALPYNVEGNNNYGMPIYTKAVNDPSQLAEQQSIGRSTVKDTYDQILSDLNNAESMLPDIIDADKIGRASKGAAIALKTRVYLHMRDWNNVVTEAKKLEGGRFILETNPATPFVSYKDNQESIFSIPNDSQDNGSVNGAMSAMMSAREGGRAMCPTSPTLYNSKFWKGDDKRRNLVLYRASDDYYFCDKYQNPQTREEYAPILRYAEVLLNEAEAAARAGDKTLALEKLNQVRDRSLADPATQTYKASDFANTKALVEAILWERRIEFQGEGRRWEDIHRLAADDLLPSGGIPAKIEYNNVKNQGAFVVGGEVKAEWFGNSKQFIPYTDKRFIWPIPLNDILRNPTLAAQQNAGW	not soluble
MGSDKIHHHHHHSQERTLFPTEKTDRVPLSVFTSFKADVTTRATAQPLPEGSSIGVFLIADANYTPQSNVKYTCQPDDEWTSETSVWVGGARAGLCAYYPFGKVTFSADIQTQTTLKNQAYTEDADWWYAKDNAAVTVTNLSPEIEFLLEKPYSQLSLEMIRNGRYPLQCKITNVRIELENGESMVDTGTFDIKDGSLQNTTDVTSYSYPTSGPMHDTGLGVGEAARDTTCNYLFVPQILASGLKLTLTIDEREFSVIVPQADLGELIAGKRHVVRLDIRGGIPINIVEVTTKEWQSTSLDGGDATTIKDTTEIIIDGGKVGTEDWASDPTENGSGAL	not soluble
MGSDKIHHHHHHSQGKQISGSSNYITKNIKVGSFDQIKSMSSSDIVYTQKQGAPTVQIYGPDNIVELMETSVSGRTLTIKFKKNTSIRNSGKLEIRVSSPSLKHLSIYGSGNTTFTNGIKSHDELQMSIYGSGNISGNSFSCTKLAARIYGSGNVNLKRISTSDTQVNISGSGNVLLDGKSTEAEYHIAGSGDINATELKVENVNARISGSGSIRCYATENLTGGVSGSGNVAYKGNPQINFSKRGLQKL	not soluble
MGSDKIHHHHHHSRSTQGVRSLGFYNRHTGERGQGSYWIDGDYQTNTLNDFNHLLRDHRQNETAPMDKRLFDLLFSLKQTLQVDEDFHVISGYRSPKTNQMLANRSSAVAKKSYHMKGMAMDIALPDVNLKDLRDAAISLKLGGVGYYPSSGFVHVDTGPIRTW	not soluble
MGSDKIHHHHHHSSSDLKDLLRERIAAKYTIDDLKDTGKKIRKTAPIESLAAVSKIDRDPVQFINSVEQNLTKSLLPMRHSRMGASQAAFFRGTAELMAYDLQQGEKSGINLLIDGDAHLQNFGFYASPERNLLFDLNDFDEAQINSFEFDIKRLLTSVYLLGDQQGFDADKLDELVQTDASIYRKTLRDLFKVGALDRFYQSTEVNHLVQSIPGAEDSALLSKFVKKATKRNNDSVIKKYTTTIDGNMRFKDDPPSSVRLDKATYQAIFDGFTQYRKSTRPDILVLLSEYRITDIIHHSVGIGSFGTNCYLVLLSGLGGSHLVLQVKEALPPRPELIPNTERITLQQEVSQGQRIIASQMILQKASDPFLGWFNVGDKSYYVRQFRDMKGSVDLEELTFPEFQYYTQITTYLLAMAHAQTPQAAVVTGYLDKSFDSAVQRWSKWYLNQVKADYSAFMRAVQTHMLA	not soluble
MGSDKIHHHHHHSTVAIALDCKGLGSPIPGTAPLCKDLTLMATGNKPSAAFVKNTRAAYGSVLQGYHNQVKPHVAPVQAAVSKKWKQFAKSDVGGKVEKIAMNIHAWIVDKWVKIQRFVQQTWNNVAAWWKKNGQKQFGPALEGFVLGVKMVFQVVADALRSVGALLVHFFARAKTFFVAFADGGFNAAMNTLNH	not soluble
MGSDKIHHHHHHTKKEISTQPIKVGVFDGHGGAQTCIWETVAAIRLDPEMEVRTITTADIANNALDSIDAIIIPGGSGKSQYLNLGTLNQQRIKDFIAKGKGAVGICAGAYLFSNTPDYTCIQLNGQQAIDIEHDNRGHGLAKFTLCEEGKKIFPELADRDTSFVIYYEGPVFINNPVDTIQSNTLAIMESDVHEEGNAPANMTNGKPFFVANNYGKGRVFSSIAHPEGTPGMMWMIPRMVRWTLNKPFIPYQSSAVRPDLFNHESLMATDDLKQEEKAFQILLSGESEQKVAALDWLEAHHSWDAKRWVQGLLYDASPAVRIRAARYIADTHYLPFLPNLQAAYRTETDKATQEELKTQLEKLTALLP	not soluble
